From US20180125892A1 (published 2018)
Numbering of substitutions follows the chain as printed.

T1: human CD20 (human, UniProt P11836 1-297)
T1 construct: whole, on cells; cell-surface antigen; also called MS4A1
T1 sequence (looked up): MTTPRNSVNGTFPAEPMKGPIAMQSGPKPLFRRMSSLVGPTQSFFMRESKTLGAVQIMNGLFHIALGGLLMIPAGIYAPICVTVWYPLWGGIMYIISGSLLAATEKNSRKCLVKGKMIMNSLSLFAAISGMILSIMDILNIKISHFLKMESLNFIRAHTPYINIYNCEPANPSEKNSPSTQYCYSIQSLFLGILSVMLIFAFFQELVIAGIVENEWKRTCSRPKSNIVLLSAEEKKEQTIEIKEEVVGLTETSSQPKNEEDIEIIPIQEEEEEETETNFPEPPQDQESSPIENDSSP

B1: CD20-C3H2 CAR (other)
chain: QVQLVQSGAEVKKPGASVKVSCKASGYTFTNYNLHWVRQAPGQGLEWMGAIYPGNYDTSYNQKFKGRVTMTADKSTSTAYMELSSLRSEDTAVYYCARVDFGHSRYWYFDVWGQGTTVTVSSGGGGSGGGGSGGGGSGGGGSDIQLTQSPSFLSASVGDRVTITCRATSSVSSMNWYQQKPGKAPKPLIHATSNLASGVPSRFSGSGSGTEYTLTISSLQPEDFATYYCQQWTFNPPTFGQGTKLEIKTTTPAPRPPTPAPTIASQPLSLRPEACRPAAGGAVHTRGLDFACDIYIWAPLAGTCGVLLLSLVITLYCKRGRKKLLYIFKQPFMRPVQTTQEEDGCSCRFPEEEEGGCELRVKFSRSADAPAYQQGQNQLYNELNLGRREEYDVLDKRRGRDPEMGGKPRRKNPQEGLYNELQKDKMAEAYSEIGMKGERRRGKGHDGLYQGLSTATKDTYDALHMQALPPR
notes: CAR on cell surface; residues 1-21 = signal peptide
B2: CD20-C2H3 CAR (other)
chain: QVQLVQSGAEVKKPGASVKVSCKASGYTFTNYWMHWVRQAPGQGLEWMGFITPTTGYPEYNQKFKDRVTMTADKSTSTAYMELSSLRSEDTAVYYCARRKVGKGVYYALDYWGQGTTVTVSSGGGGSGGGGSGGGGSGGGGSAIRMTQSPFSLSASVGDRVTITCRASGNIHNYLAWYQQKPAKAPKLFIYNTKTLADGVPSRFSGSGSGTDYTLTISSLQPEDFATYYCQHFWSSPWTFGGGTKVEIKTTTPAPRPPTPAPTIASQPLSLRPEACRPAAGGAVHTRGLDFACDIYIWAPLAGTCGVLLLSLVITLYCKRGRKKLLYIFKQPFMRPVQTTQEEDGCSCRFPEEEEGGCELRVKFSRSADAPAYQQGQNQLYNELNLGRREEYDVLDKRRGRDPEMGGKPRRKNPQEGLYNELQKDKMAEAYSEIGMKGERRRGKGHDGLYQGLSTATKDTYDALHMQALPPR
notes: as for B1
B3: CD20-C2H4 CAR (other)
chain: B2 chain with A16S, M70I
notes: as for B1
B4: CD20-C3H1 CAR (other)
chain: QVQLVQSGAEVKKPGASVKVSCKASGYTFTNYNLHWVRQAPGQGLEWMGAIYPGNYDTSYNQKFKGRVTMTADKSTSTAYMELSSLRSEDTAVYYCARVDFGHSRYWYFDVWGQGTTVTVSSGGGGSGGGGSGGGGSGGGGSEIVLTQSPATLSLSPGERATLSCRATSSVSSMNWYQQKPGQAPRPLIHATSNLASGIPARFSGSGSGTDYTLTISSLEPEDAAVYYCQQWTFNPPTFGQGTKLEIKTTTPAPRPPTPAPTIASQPLSLRPEACRPAAGGAVHTRGLDFACDIYIWAPLAGTCGVLLLSLVITLYCKRGRKKLLYIFKQPFMRPVQTTQEEDGCSCRFPEEEEGGCELRVKFSRSADAPAYQQGQNQLYNELNLGRREEYDVLDKRRGRDPEMGGKPRRKNPQEGLYNELQKDKMAEAYSEIGMKGERRRGKGHDGLYQGLSTATKDTYDALHMQALPPR
notes: as for B1

Each binder was assayed against T1, human CD20 (assay: worded conclusion from JNL NFAT-luciferase reporter co-culture with CD20-positive cell lines).
From the text: To evaluate the functional ability of CD20 CARs to activate JNL cells, they were co-cultured with target cancer cells to read out their activation by quantifying luciferase expression. The humanized scFv-based CARs CD20-C2H1, -C2H2, -C2H3, -C2H4, -C3H1, -C3H2, -C3H3, -C3H4, -C5H1, -C5H2, -C5H3, -C5H4, -C8H1, -C8H2, -C8H3, and -C8H4, were compared to CD20-8aBBz and CD20-3, -3m, -3J, -3H5k3, and -3H5k1. The control CARs CD20-3 and CD20-8aBBz were used in all assays to compare assay variation and/or act as a control. The EGFRvIII CAR T cells (CAR 2174, Johnson et al., Science Translational Medicine 2015) were used as non-targeting control.
JNL CART cells were co-cultured with the Burkitt's lymphoma line Raji (RRID: CVCL_0511) and the diffuse large B cell lymphoma (DLBCL) lines Pfeiffer (RRID: CVCL_3326), HBL-1 (RRID: CVCL_4213) and TMD8 (RRID: CVCL_A442); K562 (RRID: CVCL_0004), a chronic myelogenous leukemia (CML) cell line, served as CD20-negative control. Co-cultures were set up in 384-well plates at effector-to-target (E:T) ratios of 4:1, 2:1, 1:1 and 0.5:1 and incubated for 24 h, after which the expression of luciferase by the activated JNL CAR T cells was quantified by britelite plus Reporter Gene Assay System (PerkinElmer, Waltham, Mass.). The amount of light emitted from each well (Luminescence) was a direct read-out of JNL activation by the respective CAR. […] Some of the humanized scFvs, which were fused to the transmembrane and signaling domains of the CARs, seem to have improved the efficacy of CARs to activate JNL T cells. These were CD20-C2H1, -C2H3, -C5H1, -C5H2, and -C8H3.

Binding result, binds:
B1
B2
B3
B4
